Measurements as given in US12522635B2, “Amyloid peptide variants” (Loyola Marymount University, priority 2019, dated 2026).
Where no end group is shown, it is not given here.

What was measured:
RIN-m cells = assay: MTT viability assay, peptide alone or mixed with hIAPP; assay type: cell-based; conditions: hIAPP mixed with peptide 1:1, MTT assay
Excerpt: Cytoprotection can likewise be measured by a number of assays known to the art. One such assay is the MTT assay, which is a colorimetric assay for assessing cell metabolic activity. NAD(P)H-dependent cellular oxidoreductase enzymes in the cytosolic compartment of a cell reduces the tetrazolium dye MTT 3-(4,5-dimethylthiazol-2-yl)-2,5-diphenyltetrazolium bromide to an insoluble form, formazan, which has a purple color. The reduction of MTT (and other tetrazolium dyes) depends on the cellular metabolic activity, so a loss of color in the course of performing an MTT assay indicates low metabolic activity, and is thus an indicator of cell damage and death.
To test cell viability, a MTT colorimetric assay measuring the conversion of yellow tetrazolium salt into purple formazan crystal catalyzed by a mitochondrial reductase was used. Cell viability studies were performed using RIN-m cells (ATCC, CRL-2057). An equal number of RIN-m cells were plated in triplicate and incubated overnight in 96-well plates. The next day, fresh RPMI-1640 with phenol red supplemented with 10% FBS was added to cells. Hexafluoroisopropanol (HFIP) was removed from each individual human and animal IAPP using a centrivap concentrator (LabOnco). All IAPP peptide samples were re-suspended in RPMI-1640 with 10% FBS. To ensure even re-suspension, each resulting IAPP-containing vial was scraped with a pipette tip six times and vortexed (Vortex Genie Mixer) for 15 seconds. The whole process, from drying each IAPP peptide to adding each IAPP peptide to the cells was uniform to ensure that each sample was incubated for an equal amount of time with each IAPP peptide. IAPP peptides were added to cells and incubated for 46 hours at 37° C. Post-incubation, the media in each well was replaced by fresh DMEM/F-12 without phenol red. MTT (3-(4,5-dimethyl-2-thiazolyl)-2,5-diphenyl-tetrazolium bromide) was added into each well and incubated at 37° C. for 2 hours. Formazan crystals, formed on the bottom of the wells, were re-suspended in solubilization buffer (20% SDS and 50% dimethylformamide). The absorbance in each well was taken at 570 nm using a Multiskan FC Microplate Photometer (Thermos Fisher Scientific). Media were obtained from ATCC. All incubations took place in a water jacketed incubator in 5% carbon dioxide at 37° C. (Shell Lab).
The MTT viability assay was used to measure cell viability of RIN-m cells upon addition of hIAPP alone, the addition of each animal IAPP peptide alone, and hIAPP mixed with each animal IAPP peptide (results shown in FIG. 5). RIN-m cells alone were used as a control and set to 100% cell viability. […] Addition of raccoon IAPP to hIAPP increased the cell viability from 55% to an average of 72% (p=0.005705). Addition of chicken IAPP variant to hIAPP increased cell viability to an average of 76% (p=0.013556).

human IAPP (hIAPP) [1] = biological target: T1, human IAPP (hIAPP) (Homo sapiens, UniProt P10997); assay: Thioflavin T binding assay of hIAPP aggregation when mixed with IAPP peptides; assay type: biochemical; conditions: for inhibition of hIAPP aggregation (summary statement): peptide mixed with hIAPP, no single assay (thioflavin T and AFM); for inhibition of hIAPP aggregation, thioflavin T binding: hIAPP mixed with peptide, incubated at 37° C. with shaking
T1 construct: This 37 amino acid polypeptide is co-secreted from pancreatic β-islet cells with insulin
T1 sequence (P10997 34-70 limits assumed): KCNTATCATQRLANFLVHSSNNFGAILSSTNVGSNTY
Excerpt: Any of a number of assays known to the art can be used to evaluate the ability of IAPP peptides to inhibit hIAPP aggregation and/or protect cells from hIAPP toxicity. Thioflavin T (ThT) binding is one such technique for identifying amyloid formation in real time. Human IAPP is known to bind thioflavin T during aggregation and amyloid formation, and upon binding to amyloid fibrils ThT will give a strong fluorescence signal at approximately 482 nm when excited at 450 nm. ThT fluorescence correlates linearly with amyloid concentration in a sample and therefore can be used to determine the amount of aggregation in a sample. This technique can therefore be used for identifying substances with amyloid-inhibiting potential when such substances are mixed with human IAPP under conditions known to result in the formation of aggregates by hIAPP. Determining the extent of aggregation can also be determined using other techniques, such as Atomic Force Microscopy (AFM), which can provide information about particle dimensions, shape, and substructure with nanometer resolution. In the foregoing assays and others that can be used by one of skill in the art, significant inhibition can be determined using a t-test by measuring the difference between hIAPP and hIAPP combined with an IAPP peptide.
To identify IAPP peptides having inhibitory potential against hIAPP aggregation, the peptides shown in FIG. 1 from a number of species (cow, degu, guinea pig, horse, pig, rat, and sheep[…]) were mixed with hIAPP at a 2:1 molar ratio of animal peptide to hIAPP and incubated under conditions known to promote hIAPP aggregation and fibril formation. IAPP alone, or hIAPP mixed with an animal IAPP, was pipetted into a glass tube and the HFIP was removed under speed-vacuum. The resulting peptide sample was dissolved in 20 mM Tris buffer pH 7.4.
37 μM human IAPP was mixed with 75 μM of each indicated animal IAPP. Aggregation was initiated by incubating samples at 37° C. with shaking at 200 rpm for 40 minutes. At indicated time points, a 17 μL aliquot of each sample was mixed with 663 μL of 50.0 μM thioflavin T in 20 mM Tris buffer (pH 7.4). Thioflavin T fluorescence emission was then recorded at 488 nm using a Hitachi F-7000 fluorescence spectrophotometer.
After 40 minutes, these samples were monitored for their ability to bind thioflavin T (see FIG. 2) and their ability to form fibrils as identified with atomic force microscopy.
Human IAPP (37 μM) was mixed with each of the indicated Weddell seal variants (at 75 μM) and incubated for 30 minutes at 37° C. with shaking at 200 rpm. The Weddell seal IAPP peptides were likewise subjected to atomic force microscopy as described in Example 2.
Human IAPP was mixed with each of the indicated raccoon variants and incubated at 37° C. with shaking.
Human IAPP was mixed with each of the indicated chicken variants and incubated at 37° C. with shaking. […] However, it was able to protect cells in MTT assays, so it is believed to inhibit formation of toxic oligomers while having a lesser effect on inhibiting the formation of fibers (which are less toxic and less able to bind ThT).
Human IAPP was mixed with each of the indicated chicken variants and incubated at 37° C. with shaking.

human IAPP (hIAPP) [2] = biological target: T1, human IAPP (hIAPP); assay: Atomic force microscopy (AFM) of hIAPP fibril formation when mixed with IAPP peptides; assay type: biochemical; conditions: 37 μM hIAPP and 75 μM peptide, 37° C. with shaking for 40 minutes
Protocol: Samples labeled with hIAPP contained 40 μM hIAPP. The sample with pramlintide and hIAPP contained a 2:1 molar mixture (80 μM Pramlintide mixed with 40 μM hIAPP). The samples with raccoon IAPP and Pramlintide alone contained 40 μM of the indicated peptides. Each sample was incubated for 40 minutes at 37° C. with shaking; conditions known to promote hIAPP amyloid formation. All scans show raw data with no flattening and are […].
Each sample contained 37 μM hIAPP and 75 μM of the indicated peptide. Samples were incubated at 37° C. with shaking for 40 minutes. All scans show raw data with no flattening and are […].
Each sample contained 37 μM hIAPP mixed with 37 μM of the indicated peptide. Samples were incubated at 37° C. with shaking for 30 minutes before depositing each sample onto freshly cleaved mica.
Samples of hIAPP with or without animal IAPP were prepared as described in Example 1 and were then incubated with shaking at 37° C. for 40 minutes. After this incubation, 17 μL of each sample was deposited onto freshly cleaved mica. Samples were incubated for 5 minutes at room temperature before washing with 200 μL sterile water. After drying, the samples were scanned using an MFP-3D atomic force microscope (Asylum Research) set on A/C mode and a 240 m silicon cantilever (Olympus).
Many of the animal IAPP variants are known to likewise form fibrils and yield amyloid-plaques when scanned via AFM. […] This is in spite of the fact that all of these IAPP peptides (except polar bear IAPP) are known to aggregate and form fibrils themselves under these or similar conditions

In the case of “SEQ ID NO:23: raccoon IAPP peptide with amino acids removed from the N-terminal end (ATQRLANFLLRSSNNLGAILSPTNVGSNTY; Procyon lotor truncation)”, the “rescue / protection of cells from hIAPP toxicity (words)” value (“rescue / protection of cells” for short) (RIN-m cells) was “failed to inhibit aggregation of hIAPP or reduce its cytotoxicity” and the “inhibition of hIAPP aggregation (summary statement)” value (shortened to “inhibition … (summary statement)”) (human IAPP (hIAPP) [1]) was “failed to inhibit aggregation of hIAPP or reduce its cytotoxicity”.

In the case of “KCNTATCATQRLANFLVRTSNNLGAILSPTNVGSNTY (ends and bridges not checked; cysteine pairing not given here) [dog IAPP]”, the “inhibition of hIAPP fibril formation, AFM” value (“inhibition … AFM” below) (human IAPP (hIAPP) [2]) was “significant ability to prevent fiber formation” and the “inhibition … (summary statement)” value (human IAPP (hIAPP) [1]) was “able to inhibit such aggregation”.

In the case of “SEQ ID NO:24: raccoon IAPP peptide with amino acids removed from the middle (VTQRLANFLLRSSNNLGAILSPT; Procyon lotor truncation)”, the “rescue / protection of cells” value (RIN-m cells) was “failed to inhibit aggregation of hIAPP or reduce its cytotoxicity” and the “inhibition … (summary statement)” value (human IAPP (hIAPP) [1]) was “failed to inhibit aggregation of hIAPP or reduce its cytotoxicity”.

In the case of “KCNTATCATQRLANFLLRSSNNLGAILSPTNVGSNTY (Procyon lotor mutation) [Rac_V8A]”, the “inhibition of hIAPP aggregation, thioflavin T binding” value (“inhibition … thioflavin T binding” below) (human IAPP (hIAPP) [1]) was “inhibited hIAPP aggregation”.

“KCNTATCVTQRLANFLVRSSNNLGAILSPTNVGSNTY (Procyon lotor mutation) [Rac_L16V]” was tested, and the “inhibition … thioflavin T binding” value (human IAPP (hIAPP) [1]) was “inhibited hIAPP aggregation”.

In the case of “KCNTATCVTQRLANFLLRSSNNLGAILSPT (ends and bridges not checked; cysteine pairing not given here) [R1-30]”, the “rescue / protection of cells” value (RIN-m cells) was “rescued cells from hIAPP-induced cytotoxicity” and the “inhibition … thioflavin T binding” value (human IAPP (hIAPP) [1]) was “inhibited hIAPP aggregation”.

In the case of “R1-23: truncated raccoon IAPP peptide of FIG. 19; sequence not printed in the text (KCNTATCVTQRLANFLLRSSNNL)”, the “inhibition … AFM” value (human IAPP (hIAPP) [2]) was “did not inhibit hIAPP aggregation”.

“KCNTATCVTQRLADFLLRSSNNLGAILSPTNVGSNTY (Procyon lotor mutation) [Rac_N13D]” was tested, and the “inhibition … thioflavin T binding” value (human IAPP (hIAPP) [1]) was “inhibited hIAPP aggregation”.

“KCNTATCATQRLANFLVRSSNNFGAILSPTNVGSNTY (KTATCATQRLANFLVHSSNNLGAILSPTNVGSNTY; Leptonychotes weddellii mutation) [WS_RP]” was tested, and the “rescue / protection of cells” value (RIN-m cells) was “rescued cells from hIAPP toxicity”.

With “R8-30: truncated raccoon IAPP peptide of FIG. 19; sequence not printed in the text (VTQRLANFLLRSSNNLGAILSPT)” the “inhibition … AFM” value (human IAPP (hIAPP) [2]) was “did not inhibit hIAPP aggregation”.

“SEQ ID NO:25: raccoon IAPP peptide with amino acids removed from the middle (VTQRLANFLLRSSNNL; Procyon lotor truncation)” was tested, and the “rescue / protection of cells” value (RIN-m cells) was “failed to inhibit aggregation of hIAPP or reduce its cytotoxicity” and the “inhibition … (summary statement)” value (human IAPP (hIAPP) [1]) was “failed to inhibit aggregation of hIAPP or reduce its cytotoxicity”.

For “SEQ ID NO:22: raccoon IAPP peptide with amino acids removed from the middle (FLLRSSNNLGAILSPTN; Procyon lotor truncation)”, the “rescue / protection of cells” value (RIN-m cells) was “failed to inhibit aggregation of hIAPP or reduce its cytotoxicity” and the “inhibition … (summary statement)” value (human IAPP (hIAPP) [1]) was “failed to inhibit aggregation of hIAPP or reduce its cytotoxicity”.

For “SEQ ID NO:21: raccoon IAPP peptide with amino acids removed from the N-terminal end (FLLRSSNNLGAILSPTNVGSNTY; Procyon lotor truncation)”, the “rescue / protection of cells” value (RIN-m cells) was “failed to inhibit aggregation of hIAPP or reduce its cytotoxicity” and the “inhibition … (summary statement)” value (human IAPP (hIAPP) [1]) was “failed to inhibit aggregation of hIAPP or reduce its cytotoxicity”.

For “KCNTATCVTQRLANFLLRSSNNIGAILSPTNVGSNTY (Procyon lotor mutation) [Rac_L22I]”, the “inhibition … thioflavin T binding” value (human IAPP (hIAPP) [1]) was “inhibited hIAPP aggregation”.

For “R8-23: truncated raccoon IAPP peptide of FIG. 19; sequence not printed in the text (VTQRLANFLLRSSNNL)”, the “inhibition … AFM” value (human IAPP (hIAPP) [2]) was “did not inhibit hIAPP aggregation”.

With “KCNTATCVTQRLADFLVRSSSNIGAILSPTNVGSNTY (Gallus gallus mutation) [Ch_Y26L]” the “rescue / protection of cells” value (RIN-m cells) was “rescued cells from hIAPP-induced cytotoxicity” and the “inhibition … thioflavin T binding” value (human IAPP (hIAPP) [1]) was “inhibited hIAPP aggregation”.

For “KCNTATCVTQRLADFLLRSSSNIGAIYSPTNVGSNTY (Gallus gallus mutation) [Ch_V16L]”, the “rescue / protection of cells” value (RIN-m cells) was “rescued cells from hIAPP-induced cytotoxicity” and the “inhibition … thioflavin T binding” value (human IAPP (hIAPP) [1]) was “inhibited hIAPP aggregation”.
